The source of these data is patent publication US20240100162A1.

Sequences and labels used below:
B1: TCR3 (TCR)
TCR alpha: AQKVTQAQTEISVVEKEDVTLDCVYETRDTTYYLFWYKQPPSGELVFLIRRNSFDEQNEISGRYSWNFQKSTSSFNFTITASQVVDSAVYFCALSVLRMDSSYKLIFGSGTRLLVRPDIQNPDPAVYQLRDSKSSDKSVCLFTDFDSQTNVSQSKDSDVYITDKTVLDMRSMDFKSNSAVAWSNKSDFACANAFNNSIIPEDTFFPSPESSCDVKLVEKSFETDTNLNFQNLSVIGFRILLLKVAGFNLLMTLRLWSS
TCR beta: NAGVTQTPKFRVLKTGQSMTLLCAQDMNHEYMYWYRQDPGMGLRLIHYSVGEGTTAKGEVPDGYNVSRLKKQNFLLGLESAAPSQTSVYFCASSLQGAGQPQHFGDGTRLSILEDLNKVFPPEVAVFEPSEAEISHTQKATLVCLATGFFPDHVELSWWVNGKEVHSGVSTDPQPLKEQPALNDSRYCLSSRLRVSATFWQNPRNHFRCQVQFYGLSENDEWTQDRAKPVTQIVSAEAWGRADCGFTSVSYQQGVLSATILYEILLGKATLYAVLVSALVLMAMVKRKDF
B2: TCR1 (TCR)
TCR alpha: KQEVTQIPAALSVPEGENLVLNCSFTDSAIYNLQWFRQDPGKGLTSLLLIQSSQREQTSGRLNASLDKSSGRSTLYIAASQPGDSATYLCAAMKTSYDKVIFGPGTSLSVIPNIQNPDPAVYQLRDSKSSDKSVCLFTDFDSQTNVSQSKDSDVYITDKTVLDMRSMDFKSNSAVAWSNKSDFACANAFNNSIIPEDTFFPSPESSCDVKLVEKSFETDTNLNFQNLSVIGFRILLLKVAGFNLLMTLRLWSS
TCR beta: GEEVAQTPKHLVRGEGQKAKLYCAPIKGHSYVFWYQQVLKNEFKFLISFQNENVFDETGMPKERFSAKCLPNSPCSLEIQATKLEDSAVYFCASSQGQGGYGYTFGSGTRLTVVEDLNKVFPPEVAVFEPSEAEISHTQKATLVCLATGFFPDHVELSWWVNGKEVHSGVSTDPQPLKEQPALNDSRYCLSSRLRVSATFWQNPRNHFRCQVQFYGLSENDEWTQDRAKPVTQIVSAEAWGRADCGFTSVSYQQGVLSATILYEILLGKATLYAVLVSALVLMAMVKRKDF
B3: TCR2 (TCR)
TCR alpha: QKEVEQNSGPLSVPEGAIASLNCTYSDRGSQSFFWYRQYSGKSPELIMSIYSNGDKEDGRFTAQLNKASQYVSLLIRDSQPSDSATYLCAVNIPFSNSGGYQKVTFGTGTKLQVIPNIQNPDPAVYQLRDSKSSDKSVCLFTDFDSQTNVSQSKDSDVYITDKTVLDMRSMDFKSNSAVAWSNKSDFACANAFNNSIIPEDTFFPSPESSCDVKLVEKSFETDTNLNFQNLSVIGFRILLLKVAGFNLLMTLRLWSS
TCR beta: NAGVTQTPKFRVLKTGQSMTLLCAQDMNHEYMYWYRQDPGMGLRLIHYSVGEGTTAKGEVPDGYNVSRLKKQNFLLGLESAAPSQTSVYFCASRHPGQYNQPQHFGDGTRLSILEDLNKVFPPEVAVFEPSEAEISHTQKATLVCLATGFFPDHVELSWWVNGKEVHSGVSTDPQPLKEQPALNDSRYCLSSRLRVSATFWQNPRNHFRCQVQFYGLSENDEWTQDRAKPVTQIVSAEAWGRADCGFTSVSYQQGVLSATILYEILLGKATLYAVLVSALVLMAMVKRKDF

Where only a bound is given, the exact number is not on record here.

The test has as its target highly frequent MHC Class I alleles in major US ethnic groups, including 38 HLA-A, 40 HLA-B, and 24 HLA-C alleles, on a panel of 34 BLCLs. The experiment in a line: cell-based or functional assay.
Consider B1, for which the cytokine (IFNg, TNFa, IL-12p70) and granzyme B production in co-culture with BLCLs, fold over IL12-RFP control T cells was below 4 fold.
Under B2 stands below 4 fold.
Next, B3: below 4 fold.
